The source of these data is US20220403048A1, “BINDING MOLECULES TO ARGINASE II [ARG2]” (Cancer Research Technology Limited, priority 2019, published 2022).

The target of this assay is recombinant human trimeric ARG2 enzyme (construct not given) (human) (UniProt P78540). The experiment in a line: cell-based or functional assay.
Sequence of recombinant human trimeric ARG2 enzyme (construct not given) (human) (P78540 23-354, form in doubt): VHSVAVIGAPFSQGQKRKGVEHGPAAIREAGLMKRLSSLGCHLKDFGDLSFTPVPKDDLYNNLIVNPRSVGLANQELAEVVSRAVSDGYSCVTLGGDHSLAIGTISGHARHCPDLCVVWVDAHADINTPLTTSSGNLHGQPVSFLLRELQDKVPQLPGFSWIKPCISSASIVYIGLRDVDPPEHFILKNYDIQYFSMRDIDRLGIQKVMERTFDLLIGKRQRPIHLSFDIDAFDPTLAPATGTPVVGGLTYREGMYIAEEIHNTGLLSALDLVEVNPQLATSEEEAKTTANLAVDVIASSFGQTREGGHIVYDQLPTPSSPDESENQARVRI

NIP228 human IgG1 (antibody): the EC50, In Presence of rhARG2 (T cell proliferation) is over 2 µM and the Maximum % Proliferation, In Presence of rhARG2 was determined as 7%.
